Assay in all cases: GST pull-down from S2 cell lysate with mass spectrometry (volcano plot of spectral intensities)
One experiment addresses Ostγ. Particulars: three biological replicates, read off a plot.
The target in the next experiment is Ostδ. As to conditions: three biological replicates, read off a plot.
The target of the next experiment is Arf79F. Particulars: three biological replicates, read off a plot.
The next experiment addresses εCOP. As to conditions: three biological replicates, read off a plot.
A further experiment addresses γCOP. Particulars: three biological replicates, read off a plot.
The next experiment concerns the target CG33303. Particulars: three biological replicates, read off a plot.
In a further experiment the target is T1, Prat, Q27601.
T1 chain: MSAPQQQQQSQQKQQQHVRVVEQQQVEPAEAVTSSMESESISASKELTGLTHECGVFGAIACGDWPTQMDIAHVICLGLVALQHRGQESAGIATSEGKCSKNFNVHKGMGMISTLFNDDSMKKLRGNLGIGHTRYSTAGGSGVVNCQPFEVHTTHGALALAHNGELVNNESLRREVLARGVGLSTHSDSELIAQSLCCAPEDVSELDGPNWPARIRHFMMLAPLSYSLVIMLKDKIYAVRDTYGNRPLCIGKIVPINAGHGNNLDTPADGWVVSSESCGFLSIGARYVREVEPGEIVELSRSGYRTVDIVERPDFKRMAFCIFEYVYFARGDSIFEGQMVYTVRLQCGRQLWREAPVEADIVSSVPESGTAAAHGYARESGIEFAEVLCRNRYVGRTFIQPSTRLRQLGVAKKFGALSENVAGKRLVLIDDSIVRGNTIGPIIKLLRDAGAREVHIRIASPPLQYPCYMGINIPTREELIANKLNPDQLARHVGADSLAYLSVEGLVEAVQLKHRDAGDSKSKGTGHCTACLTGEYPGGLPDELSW
Particulars: chain shown with the change, three biological replicates, read off a plot.

Consider “GST-tagged CG9590 (Drosophila FAM114A) (from UniProt Q9VF39) W24A; W27A”, for which the other: Difference Log2(CG9590-GST, Wild-type vs W24,27A mutant) is 1.1 log2 in the experiment with Ostγ; 1.7 log2 in the experiment with Ostδ; 1.4 log2 with Arf79F; 5.5 log2 with εCOP; 6.3 log2 in the experiment with γCOP; 2.5 log2 in the experiment with CG33303.

B1: GST-tagged CG9590 (Drosophila FAM114A), Q9VF39 W24A; W27A (protein)
chain: MAKNPKKEEDGGNDWAQSDEDDNADDAGDDDDKFVHVEKEQQPQEKVSSRNDAKGTAENQEKLETPRISAPATASATSSSWGLWGGKLSSVLTTATEGLGTITTQVNQGLNQIIGVPDPEELARINVAEKAEKAAKAPPEENVDDEKESSAAFGLDFVTNLGSKVLNTGLDTLEGIGKKTMTILQDNDPKLMNKRKLLGLEANSPNLSAVLLEAKKEADQMEQSLQQLQLKRQKAQLRFEILFENYCGLVHFEALEILSKESRLKLDTLLDAVSGNARAELQETINEVKELIELEDLDVESEGDYEAEELSERLAATIKDAELGIQFDDIANHWTQSLSWLTSEEATAADLEQAYAKSIHALSEACALEMCKLHKIAELLLVKPHHSTANEVDGVVNLCQQFNGHLQGLSHRFAAVLSGKSETEESKGRVSTFFSEMLSAVQFIEKAYKLFTPILQMGAV
In the experiment with Prat, Q27601, B1 yielded an other: Difference Log2(CG9590-GST, Wild-type vs W24,27A mutant) of 9.8 log2.
